According to patent publication US20230391845A1, “GLP-1, GIP AND GLUCAGON RECEPTOR TRIPLE AGONISTS” (priority 2020, published 2023):
Where no end group is shown, it is not given here. [ ]: non-standard residue; d: D form. Aib = CC(C)(N)C(=O)O

T1: human glucose-dependent insulinotropic polypeptide receptor (human, UniProt P48546 22-466)
T1 sequence (looked up): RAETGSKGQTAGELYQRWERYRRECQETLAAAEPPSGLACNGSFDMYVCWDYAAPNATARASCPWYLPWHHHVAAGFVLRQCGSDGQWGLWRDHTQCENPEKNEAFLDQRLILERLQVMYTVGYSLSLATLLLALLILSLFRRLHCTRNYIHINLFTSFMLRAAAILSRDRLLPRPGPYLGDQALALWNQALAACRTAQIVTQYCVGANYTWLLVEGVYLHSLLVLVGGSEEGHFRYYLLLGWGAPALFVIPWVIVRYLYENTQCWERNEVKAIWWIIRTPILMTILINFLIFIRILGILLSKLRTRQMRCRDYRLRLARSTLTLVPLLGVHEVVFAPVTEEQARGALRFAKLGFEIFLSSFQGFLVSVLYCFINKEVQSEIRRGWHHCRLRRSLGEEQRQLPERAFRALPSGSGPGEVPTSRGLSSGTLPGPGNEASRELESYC


Columns and labels:
Assay in all cases: cell-based or functional assay
human glucagon receptor = human glucagon receptor (human, UniProt P47871 26-477)
human glucagon receptor, sequence (P47871 26-477): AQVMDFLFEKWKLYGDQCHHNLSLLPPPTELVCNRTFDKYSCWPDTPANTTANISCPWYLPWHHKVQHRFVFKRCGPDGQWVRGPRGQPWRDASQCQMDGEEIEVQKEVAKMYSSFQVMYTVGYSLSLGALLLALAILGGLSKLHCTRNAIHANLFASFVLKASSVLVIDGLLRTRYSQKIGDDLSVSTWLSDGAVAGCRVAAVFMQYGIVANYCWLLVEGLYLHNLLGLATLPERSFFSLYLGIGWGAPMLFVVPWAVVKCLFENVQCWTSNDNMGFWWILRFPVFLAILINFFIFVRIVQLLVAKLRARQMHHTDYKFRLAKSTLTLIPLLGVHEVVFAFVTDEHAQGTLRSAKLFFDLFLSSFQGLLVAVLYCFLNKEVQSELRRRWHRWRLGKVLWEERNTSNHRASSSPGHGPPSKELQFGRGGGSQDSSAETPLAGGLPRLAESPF

[1] = target: T1, human glucose-dependent insulinotropic …
[2] = target: human glucagon-like peptide 1 receptor (human, UniProt P43220 24-463)

Row | Binder | hGcgR CRE Luc EC50 (pM) (human glucagon receptor) | hGIPR CRE Luc EC50 (pM) [1] [pM] | hGLP-1R CRE Luc EC50 (pM) [2] [pM]
1 | H[Aib]HGTFTSDYSILLEKQAA[Aib]EFVQWLLEGGPSSGAPPPS-NH2 (not fully specified (residue 16); printed as H-Aib-HGTFTSDYSILLE-K[(2S)-2-amino-6-[[(2S)-2-amino-6-[[(4S)-4-carboxy-4-(19-carboxynonadecanoylamino)butanoyl]amino]hexanoyl]amino]hexanoyl]-QAA-Aib-EFVQWLLEGGPSSGAPPPS-NH2) [Compound No. 43] | 10.8 | 2.8 | 3
2 | H[Aib]HGTFTSDYSIYLEKRAA[Aib]EFVQWLLEGGPSSGAPPPS-NH2 (not fully specified (residue 16); printed as H-Aib-HGTFTSDYSIYLE-K[(2S)-2-amino-6-[[(2S)-2-amino-6-[[(4S)-4-carboxy-4-(19-carboxynonadecanoylamino)butanoyl]amino]hexanoyl]amino]hexanoyl]-RAA-Aib-EFVQWLLEGGPSSGAPPPS-NH2) [Compound No. 37] | 11.8 | 10.8 | 1.8
3 | H[Aib]HGTFTSDYSILLEKKYA[Aib]EFVQWLLEGGPSSGAPPPS-NH2 (not fully specified (residue 16); printed as H-Aib-HGTFTSDYSILLE-K[(2S)-2-amino-6-[[(2S)-2-amino-6-[[(4S)-4-carboxy-4-(19-carboxynonadecanoylamino)butanoyl]amino]hexanoyl]amino]hexanoyl]-KYA-Aib-EFVQWLLEGGPSSGAPPPS-NH2) [Compound No. 41] | 7.6 | 9.3 | 4.3
4 | H[Aib]HGTFTSDYSIYLEKQAA[Aib]EFVQWLLEGGPSSGAPPPS-NH2 (not fully specified (residue 16); printed as H-Aib-HGTFTSDYSIYLE-K[2-[2-[2-[[2-[2-[2-[[(4S)-4-carboxy-4-(19-carboxynonadecanoylamino)butanoyl]amino]ethoxy]ethoxy]acetyl]amino]ethoxy]ethoxy]acetyl]-QAA-Aib-EFVQWLLEGGPSSGAPPPS-NH2) [Compound No. 44] | 45.2 | 6.1 | 1.8
5 | H[Aib]HGTFTSDYSIYLEKKYA[Aib]EFVQWLLEGGPSSGAPPPS-NH2 (not fully specified (residue 16); printed as H-Aib-HGTFTSDYSIYLE-K[2-[2-[2-[[2-[2-[2-[[(4S)-4-carboxy-4-(19-carboxynonadecanoylamino)butanoyl]amino]ethoxy]ethoxy]acetyl]amino]ethoxy]ethoxy]acetyl]-KYA-Aib-EFVQWLLEGGPSSGAPPPS-NH2) [Compound No. 39] | 12.9 | 17.9 | 4.4
6 | H[Aib]HGTFTSDYSYLLEKQAA[Aib]EFVQWLLEGGPSSGAPPPS-NH2 (not fully specified (residue 16); printed as H-Aib-HGTFTSDYSYLLE-K[(2S)-2-amino-6-[[(2S)-2-amino-6-[[(4S)-4-carboxy-4-(19-carboxynonadecanoylamino)butanoyl]amino]hexanoyl]amino]hexanoyl]-QAA-Aib-EFVQWLLEGGPSSGAPPPS-NH2) [Compound No. 42] | 8 | 3.8 | 1.9
7 | H[Aib]HGTFTSDYSILLEKQAAEEFVQWLLEGGPSSGAPPPS-OH (not fully specified (residue 16); printed as H-Aib-HGTFTSDYSILLE-K[(2S)-2-amino-6-[[(2S)-2-amino-6-[[(4S)-4-carboxy-4-(19-carboxynonadecanoylamino)butanoyl]amino]hexanoyl]amino]hexanoyl]-QAAEEFVQWLLEGGPSSGAPPPS-OH) [Compound No. 50] | 18.5 | 1.9 | 1
8 | Y[Aib]QGTFTSDYSYYLEKQAA[Aib]EFVQWLLEGGPSSGAPPPS-NH2 (not fully specified (residue 16); printed as Y-Aib-QGTFTSDYSYYLE-K[(2S)-2-amino-6-[[(2S)-2-amino-6-[[(4S)-4-carboxy-4-(19-carboxynonadecanoylamino)butanoyl]amino]hexanoyl]amino]hexanoyl]-QAA-Aib-EFVQWLLEGGPSSGAPPPS-NH2) [Compound No. 47] | 28.7 | 14.9 | 5.6
9 | Y[Aib]QGTFTSDYSILLEKQAA[Aib]EFVQWLLEGGPSSGAPPPS-NH2 (not fully specified (residue 16); printed as Y-Aib-QGTFTSDYSILLE-K[(2S)-2-amino-6-[[(2S)-2-amino-6-[[(4S)-4-carboxy-4-(19-carboxynonadecanoylamino)butanoyl]amino]hexanoyl]amino]hexanoyl]-QAA-Aib-EFVQWLLEGGPSSGAPPPS-NH2) [Compound No. 46] | 25 | 3 | 8.3
10 | H[Aib]HGTFTSDYSYYLEKQAA[Aib]EFVQWLLEGGPSSGAPPPS-NH2 (not fully specified (residue 16); printed as H-Aib-HGTFTSDYSYYLE-K[2-[2-[2-[[2-[2-[2-[[(4S)-4-carboxy-4-(19-carboxynonadecanoylamino)butanoyl]amino]ethoxy]ethoxy]acetyl]amino]ethoxy]ethoxy]acetyl]-QAA-Aib-EFVQWLLEGGPSSGAPPPS-NH2) [Compound No. 40] | 36.4 | 5.7 | 3.7
11 | H[Aib]HGTFTSDYSILLEKQAAEEFVQWLLEGGPSSGAPPPS-OH (not fully specified (residue 16); printed as H-Aib-HGTFTSDYSILLE-K[(2S)-2-amino-6-[[(2S)-2-amino-6-[[(4S)-4-carboxy-4-(17-carboxyheptadecanoylamino)butanoyl]amino]hexanoyl]amino]hexanoyl]-QAAEEFVQWLLEGGPSSGAPPPS-OH) [Compound No. 51] | 79.9 | 1.8 | 0.7
12 | H[Aib]HGTFTSDYSILLEKQAAEEFVQWLLEGGPSSGAPPPS-NH2 (not fully specified (residue 16); printed as H-Aib-HGTFTSDYSILLE-K[(2S)-2-amino-6-[[(2S)-2-amino-6-[[(4S)-4-carboxy-4-(19-carboxynonadecanoylamino)butanoyl]amino]hexanoyl]amino]hexanoyl]-QAAEEFVQWLLEGGPSSGAPPPS-NH2) [Compound No. 49] | 3.5 | 2.1 | 1.4
13 | H[Aib]HGTFTSDYSIYLEKKYA[Aib]EFVQWLLEGGPSSGAPPPS-NH2 (not fully specified (residue 16); printed as H-Aib-HGTFTSDYSIYLE-K[(2S)-2-amino-6-[[(2S)-2-amino-6-[[(4S)-4-carboxy-4-(17-carboxyheptadecanoylamino)butanoyl]amino]hexanoyl]amino]hexanoyl]-KYA-Aib-EFVQWLLEGGPSSGAPPPS-NH2) [Compound No. 38] | 6.4 | 13.1 | 2.8
14 | Y[Aib]QGTFTSDYSYLLEKQAA[Aib]EFVQWLLEGGPSSGAPPPS-NH2 (not fully specified (residue 16); printed as Y-Aib-QGTFTSDYSYLLE-K[(2S)-2-amino-6-[[(2S)-2-amino-6-[[(4S)-4-carboxy-4-(19-carboxynonadecanoylamino)butanoyl]amino]hexanoyl]amino]hexanoyl]-QAA-Aib-EFVQWLLEGGPSSGAPPPS-NH2) [Compound No. 48] | 12.6 | 9.2 | 10.1
15 | H[Aib]HGTFTSDYSILLEKQAA[Aib]EFVQWLLEGGPSSGAPPPS-NH2 (not fully specified (residue 16); printed as H-Aib-HGTFTSDYSILLE-K[2-[2-[2-[[2-[2-[2-[[(4S)-4-carboxy-4-(19-carboxynonadecanoylamino)butanoyl]amino]ethoxy]ethoxy]acetyl]amino]ethoxy]ethoxy]acetyl]-QAA-Aib-EFVQWLLEGGPSSGAPPPS-NH2) [Compound No. 45] | 6.8 | 1.9 | 2.4
